Results taken from patent US20170334973A1.

Columns and labels:
[1] = target: SUDV GPddmuc (Sudan virus (SUDV)), Q66814; assay: ELISA; conditions: remark: other sources report otherwise
[2] = target: EBOV GPddmuc (Ebola virus (EBOV)), Q05320; assay: ELISA; conditions: remark: other sources report otherwise

B1: FVM04 (antibody, V domains shown)
VH: EVQLVQSGGGLVQPGGSMRLSCEASGLSLSDYFMHWVRQAQGKGLEWIGLIQTKAFTYKTEYPAAVKGRFTISRDDSKNTLYLQMSSLKPEDTALYYCIAVTPDFYYWGQGVLVTVSS
VL: DVVMTQSPSFLSASVGDRVTITCRASQDITINLNWFQHKPGKAPKRLIYVASRLERGVPSRFSGSGSGTEFTLTISSLQPEDFATYYCQQYNNYPLTFGPGTKLDIKRTV
[1]
  EC50: 0.164 nM
[2]
  EC50: 0.149 nM

B2: FVM09 (antibody, V domains shown)
VH: EVQLVQSGAEVKRPGESLTISCKTSGYSFTDSWVAWVRQMPGKGLEWLGSIYPGDSETKYNPSFQGHVTISADKSVTTTYLKWSSLKASDTATYYCVKGSETWGQGVLVTVSS
VL: QLVLTQPASLSASPGASASLTCTFSGGINVAGYNILWYQQKAGSPPRYLLRYKSDSTKDQGSGVPSRFSGSKDASANTGILRISGLQSEDEADYYCAIGHSSGWIFGGGTRLTVL
[1]
  EC50: 7.73 nM
[2]
  EC50: 7.07 nM

B3: FVM17 (antibody, V domains shown)
VH: EVQLVQSGAEVKRPGESLTISCKTSGYSFTDSWISWVRQMPGKGLEWMGSIYPGDSDARYNPSFQGHVTISADKSISTTYLKWSSLKASDTATYYCVKGSETWGQGVLVTVSS
VL: QAVVTQPASLSASPGTSASLTCTFSGGINVAGYNILWYQQKPGSPPRFLLRYKSDSDNVQGSGVPSHFSGSKDASANTGILRISGLQSEDEADYYCAIGHSSGWIFGGGTRLTVL
[1]
  EC50: 0.113 nM
[2]
  EC50: 0.096 nM

B4: FVM20 (antibody, V domains shown)
VH: EVQLVESGAEVKRPGESLTISCKTSGYSFTGSWISWVRQMPGKGLEWLGSIYPGDSETKYNPSFQGHVTISADKSVTTTYLKWSSLKASDTATYYCVKGSETWGQGVLVTVSS
VL: NFMLTQSASLSASPGASASLTCTFSGGINVAGYHIFWYQQNPGSPPRYLLRYKSDSEKDQGSGVPSRFSGSKDASANTGILRISGLQSEDEADYYCAIGHSSGWIFGGGTRLTVL
[1]
  EC50: 0.119 nM
[2]
  EC50: 0.081 nM
